Experimental data from patent US20230390189A1, “OCULAR IMPLANT CONTAINING AN ACTIVE INGREDIENT” (OCULAR THERAPEUTIX, INC., priority 2020, published 2023).
Each block holds one compound with its values, some of them ahead of it.

Columns and labels:
[1] = cited from earlier work; for t1/2 in the human eye: in vivo
[2] = 1.25 mg intravitreal; cited from earlier work
[3] = system: VEGF-induced vascular leakage; test: VEGF challenge, vascular leakage scored by fluorescein angiography; assay type: in vivo, Dutch belted rabbits; settings: 1.25 mg Avastin alone (group 3); similar degree as control
Solubility of axitinib = assay type: physicochemical

Compound: ranibizumab: anti-VEGF agent, large molecule
t1/2 in the human eye [1]: several days

Compound: aflibercept: anti-VEGF agent, large molecule
t1/2 in the human eye [1]: several days

Compound: Avastin: anti-VEGF therapeutic, 1.25 mg intravitreal
Half-life in rabbits [2]: 158 h
Vascular leakage after VEGF challenge, late [3]: after 3 months vascular leakage re-occurred

Solubility of axitinib in 25% ethanol/75% water mix (v/v) (Solubility of axitinib): approximately 19 μg/mL
Compound: CNC(=O)c1ccccc1Sc1ccc2c(/C=C/c3ccccn3)n[nH]c2c1 [axitinib, N-methyl-2-[3-((E)-2-pyridin-2-yl-vinyl)-1H-indazol-6-ylsulfanyl]-benzamide]
Clearance half-life (t1/2) ([1]; patients, oral (Rugo et al.)): a few hours
